From patent publication US20210155689A1 (SHANGHAI PHARMAEXPLORER, published 2021)

T1: human LAG-3 on cells (HEK293-hLAG-3 stable cell line) (human, UniProt P18627 23-525)
T1 sequence: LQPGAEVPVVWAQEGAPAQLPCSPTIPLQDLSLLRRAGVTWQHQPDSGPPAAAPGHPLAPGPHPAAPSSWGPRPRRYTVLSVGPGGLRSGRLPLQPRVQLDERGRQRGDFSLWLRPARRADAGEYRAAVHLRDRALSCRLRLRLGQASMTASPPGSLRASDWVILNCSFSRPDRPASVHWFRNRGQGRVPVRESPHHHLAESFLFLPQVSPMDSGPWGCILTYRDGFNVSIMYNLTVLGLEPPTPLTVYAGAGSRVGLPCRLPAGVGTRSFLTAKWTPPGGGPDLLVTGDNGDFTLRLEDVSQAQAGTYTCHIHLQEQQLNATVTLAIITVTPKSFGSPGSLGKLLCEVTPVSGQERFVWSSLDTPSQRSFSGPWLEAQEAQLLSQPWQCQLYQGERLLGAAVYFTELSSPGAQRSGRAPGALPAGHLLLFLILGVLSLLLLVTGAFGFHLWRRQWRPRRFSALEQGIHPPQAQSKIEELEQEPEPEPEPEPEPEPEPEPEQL


How the values were obtained:
[1] = biological target: T1, human LAG-3 on cells (HEK293-hLAG-3 …); assay: FACS, HEK293-hLAG-3, antibody 0.32 nM
Excerpt: (§1) A. The binding of antibodies to LAG-3 expressing cells was detected by Flow cytometry (FACS), wherein the method was according to that of Example 5.

[2] = biological target: T1, human LAG-3 on cells (HEK293-hLAG-3 …); assay: FACS, HEK293-hLAG-3, antibody 0 nM
[3] = biological target: T1, human LAG-3 on cells (HEK293-hLAG-3 …); assay: FACS, HEK293-hLAG-3, antibody 0.013 nM
Excerpt: as §1

[4] = biological target: T1, human LAG-3 on cells (HEK293-hLAG-3 …); assay: FACS, HEK293-hLAG-3, antibody 0.064 nM
Excerpt: as §1

[5] = biological target: T1, human LAG-3 on cells (HEK293-hLAG-3 …); assay: FACS, HEK293-hLAG-3, antibody 1.6 nM
[6] = biological target: T1, human LAG-3 on cells (HEK293-hLAG-3 …); assay: FACS, HEK293-hLAG-3, antibody 40 nM
Excerpt: as §1

[7] = biological target: T1, human LAG-3 on cells (HEK293-hLAG-3 …); assay: FACS, HEK293-hLAG-3, antibody 8 nM
Excerpt: as §1

Binder	Mean fluorescence intensity [1]	Mean fluorescence intensity [2]	Mean fluorescence intensity [3]	Mean fluorescence intensity [4]	Mean fluorescence intensity [5]	Mean fluorescence intensity [6]	Mean fluorescence intensity [7]
405B8H3-3 humanized antibody (antibody, V domains shown) VH: QVQLVQSGAEVKKPGASVKVSCKASGYTFTDYEMHWVRQAPGQGLEWIGATDPETGNSAYNQKFKGRATMTADKSTSTAYMELSSLRSEDTAVYYCISTGWNDWGQGTTVTVSS VL: DIQMTQSPSSLSASVGDRVTITCKASQDINSYLSWFQQKPGKAPKSLIYRADRLLDGVPSRFSGSGSGTDFTLTISSLQPEDFATYYCLQYDEFPYTFGQGTKLEIK	74	4	11	26	173	253	230
405B8H3-8 humanized antibody (antibody, V domains shown) VH: QVQLVQSGAEVKKPGASVKVSCKASGYTFTDYEMHWVKQAPGQGLEWIGATDPETGNSAYNQKFKGKATMTADKSTSTAYMELSSLRSEDTAVYYCISTGWNDWGQGTTVTVSS VL: DIQMTQSPSSLSASVGDRVTITCKASQDINSYLSWFQQKPGKAPKSLIYRADRLLDGVPSRFSGSGSGQDYTLTISSLQPEDFATYYCLQYDEFPYTFGQGTKLEIK	52	4	8	19	134	242	213
405B8H3-5 humanized antibody (antibody, V domains shown) VH: QVQLVQSGAEVKKPGASVKVSCKASGYTFTDYEMHWVRQAPGQGLEWMGATDPETGNSAYNQKFKGRVTMTRDTSTSTVYMELSSLRSEDTAVYYCISTGWNDWGQGTTVTVSS VL: DIQMTQSPSSLSASVGDRVTITCKASQDINSYLSWFQQKPGKAPKSLIYRADRLLDGVPSRFSGSGSGQDYTLTISSLQPEDFATYYCLQYDEFPYTFGQGTKLEIK	62	4	9	21	174	257	243
405B8H3-4 humanized antibody (antibody, V domains shown) VH: QVQLVQSGAEVKKPGASVKVSCKASGYTFTDYEMHWVKQAPGQGLEWIGATDPETGNSAYNQKFKGKATMTADKSTSTAYMELSSLRSEDTAVYYCISTGWNDWGQGTTVTVSS VL: DIQMTQSPSSLSASVGDRVTITCKASQDINSYLSWFQQKPGKAPKSLIYRADRLLDGVPSRFSGSGSGTDFTLTISSLQPEDFATYYCLQYDEFPYTFGQGTKLEIK	63	4	10	23	151	251	217

Continued, values first:

Mean fluorescence intensity [1]	Mean fluorescence intensity [2]	Mean fluorescence intensity [3]	Mean fluorescence intensity [4]	Mean fluorescence intensity [5]	Mean fluorescence intensity [6]	Mean fluorescence intensity [7]	Binder
61	4	11	23	142	229	207	405B8H3-12 humanized antibody (antibody, V domains shown) VH: QVQLVQSGAEVKKPGASVKVSCKASGYTFTDYEMHWVKQAPGQGLEWIGATDPETGNSAYNQKFKGKATMTADKSTSTAYMELSSLRSEDTAVYYCISTGWNDWGQGTTVTVSS VL: DIKMTQSPSSLSASVGDRVTITCKASQDINSYLSWFQQKPGKSPKSLIYRADRLLDGVPSRFSGSGSGQDYTLTISSLQPEDFATYYCLQYDEFPYTFGQGTKLEIK
82	4	11	25	184	238	229	405B8H3-10 humanized antibody (antibody, V domains shown) VH: QVQLVQSGAEVKKPGASVKVSCKASGYTFTDYEMHWVRQAPGQGLEWMGATDPETGNSAYNQKFKGRVTMTADKSTSTVYMELSSLRSEDTAVYYCISTGWNDWGQGTTVTVSS VL: DIKMTQSPSSLSASVGDRVTITCKASQDINSYLSWFQQKPGKSPKSLIYRADRLLDGVPSRFSGSGSGQDYTLTISSLQPEDFATYYCLQYDEFPYTFGQGTKLEIK
71	4	11	25	164	230	220	405B8H3-11 humanized antibody (antibody, V domains shown) VH: QVQLVQSGAEVKKPGASVKVSCKASGYTFTDYEMHWVRQAPGQGLEWIGATDPETGNSAYNQKFKGRATMTADKSTSTAYMELSSLRSEDTAVYYCISTGWNDWGQGTTVTVSS VL: DIKMTQSPSSLSASVGDRVTITCKASQDINSYLSWFQQKPGKSPKSLIYRADRLLDGVPSRFSGSGSGQDYTLTISSLQPEDFATYYCLQYDEFPYTFGQGTKLEIK
132	4	14	43	218	249	246	405B8H3-9 humanized antibody (antibody, V domains shown) VH: QVQLVQSGAEVKKPGASVKVSCKASGYTFTDYEMHWVRQAPGQGLEWMGATDPETGNSAYNQKFKGRVTMTRDTSTSTVYMELSSLRSEDTAVYYCISTGWNDWGQGTTVTVSS VL: DIKMTQSPSSLSASVGDRVTITCKASQDINSYLSWFQQKPGKSPKSLIYRADRLLDGVPSRFSGSGSGQDYTLTISSLQPEDFATYYCLQYDEFPYTFGQGTKLEIK
